Three substances from patent US20050152916A1 can be followed below.

Where “and” joins values, the source holds several entries; their conditions need not be identical. Equal entries are not always repeated. A value given as a limit tells only on which side of the number the result lay.

For test [1], the target named is recombinant biotinylated L^d immobilized on avidin-coated sheep red blood cells (mouse). The experiment in a line: flow cytofluorometry of L^d-coated SRBC with anti-L^d antibody 30.5.7 (FIG. 8).
Test [2] addresses L^d on cells loaded with QL9 peptide (mouse) (UniProt P01887).
Test [3] concerns the target recombinant biotinylated L^d immobilized on a support, loaded with QL9 peptide (mouse) (UniProt P01887).
Test [4] has as its target 2C T-cell receptor (on T-cells of 2C TCR transgenic mice) (mouse). Put plainly: flow cytofluorometry of purified 2C TCR transgenic lymph node T-cells.
The target is the same in test [5]. The experiment in a line: staining of purified CD8+ lymph node cells of 2C mice.

Chain of recombinant biotinylated L^d immobilized on a support, loaded with QL9 peptide (mouse) (P01897 25-309 limits assumed, chain 1 of 2): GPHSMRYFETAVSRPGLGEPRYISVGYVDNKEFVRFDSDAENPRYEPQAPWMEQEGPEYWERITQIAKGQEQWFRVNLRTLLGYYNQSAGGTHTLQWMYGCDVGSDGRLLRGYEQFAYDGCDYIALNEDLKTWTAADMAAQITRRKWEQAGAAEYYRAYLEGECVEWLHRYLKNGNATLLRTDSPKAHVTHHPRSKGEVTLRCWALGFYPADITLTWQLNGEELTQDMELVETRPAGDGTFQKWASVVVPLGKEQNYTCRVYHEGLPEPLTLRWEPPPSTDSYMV
Chain of recombinant biotinylated L^d immobilized on a support, loaded with QL9 peptide (mouse) (P01887 21-119 limits assumed, chain 2 of 2): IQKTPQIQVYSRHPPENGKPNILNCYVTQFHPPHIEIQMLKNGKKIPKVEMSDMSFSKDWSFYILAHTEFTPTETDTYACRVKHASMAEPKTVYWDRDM
Chain of L^d on cells loaded with QL9 peptide (mouse) (P01897 25-362, chain 1 of 2): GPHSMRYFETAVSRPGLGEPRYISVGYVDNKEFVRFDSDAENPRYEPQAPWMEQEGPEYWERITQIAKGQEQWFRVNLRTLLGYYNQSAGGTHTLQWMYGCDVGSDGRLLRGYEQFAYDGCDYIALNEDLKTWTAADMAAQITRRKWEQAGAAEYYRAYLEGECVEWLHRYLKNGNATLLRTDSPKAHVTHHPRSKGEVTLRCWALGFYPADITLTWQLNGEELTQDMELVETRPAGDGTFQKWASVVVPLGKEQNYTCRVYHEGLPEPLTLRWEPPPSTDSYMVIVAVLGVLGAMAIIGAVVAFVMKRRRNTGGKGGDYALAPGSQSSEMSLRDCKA
Chain of L^d on cells loaded with QL9 peptide (mouse) (P01887 21-119, chain 2 of 2): as the sequence (P01887 21-119 limits assumed, chain 2 of 2) above

As for monoclonal antibody 30.5.7 (anti-L^d), in test [1], the percent of cells labeled amounted to 99.8%. As to “2C T-cell receptor (on T-cells of 2C TCR transgenic mice)”, the percent of lymphocytes included in rosettes is 30% and 40% in test [2]; 30% and 40% in test [3].

Consider “monoclonal antibody 1B2 (anti-clonotypic antibody to the 2C T-cell receptor)”, for which the percent of cells positive for staining is 97% and 98% in test [4]; greater than 95% in test [5].
